The labels stand for the following.
B1: library; numbered along this chain (parent)
chain: MRKPRAAVGSGHRKQAASQEGRQKHAKNNSQAKPSACDGLARQPEEVVLQASVSSYHLFRDVAEVTAFRGSLLSWYDQEKRDLPWRRRAEDEMDLDRRAYAVWVSEVMLQQTQVATVINYYTGWMQKWPTLQDLASASLEEVNQLWAGLGYYSRGRRLQEGARKVVEELGGHMPRTAETLQQLLPGVGRYTAGAIASIAFGQATGVVDGNVARVLCRVRAIGADPSSTLVSQQLWGLAQQLVDPARPGDFNQAAMELGATVCTPQRPLCSQCPVESLCRARQRVEQEQLLASGSLSGSPDVEECAPNTGQCHLCLPPSEPWDQTLGVVNFPRKASRKPPREESSATCVLEQPGALGAQILLVQRPNSGLLAGLWEFPSVTWEPSEQLQRKALLQELQRWAGPLPATHLRHLGEVVHTFSHIKLTYQVYGLALEGQTPVTTVPPGARWLTQEEFHTAAVSTAMKKVFRVYQGQQPGTCMGSKRSQVSSPCSRKKPRMGQQVLDNFFRSHISTDAHSLNSAAQ

Variants of B1 are the subject of this data set. Put plainly: 8OG:A repair function score (normalized; synonymous = 0, nonsense = -1) (normalized log-likelihood score); higher = more repair activity (WT-like). As to conditions: with 8OG:A DNA repair reporter (GFP) in HEK-293 MUTYH KO cells. A digest of the protocol: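 MUTYH knockout HEK-293 cells carrying lentiviral MUTYH cDNA NNN codon-scan libraries were grown with 10 pg/ml doxycycline and co-transfected with mCherry and a GFP reporter of 8OG:A repair. Viable mCherry+ cells were sorted at 72 h into GFP+ (repair) and GFP− bins, with three replicates per tile, and tile amplicons were sequenced. Rosace fitness scores for each tile were turned into a normalized repair function score anchored on the synonymous and nonsense distributions. Synonymous medians were set to 0 and nonsense medians to -1, and variants below 300 counts per million at the start were dropped.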
For MRKPRAAVGSGHRKQAASQEGRQKHAKNNSQAKPSACDGLARQPEEVVLQASVSSYHLFRDVAEVTAFRGSLLSWYDQEKRDLPWRRRAEDEMDLDRRAYAVPVSEVMLQQTQVATVINYYTGWMQKWPTLQDLASASLEEVNQLWAGLGYYSRGRRLQEGARKVVEELGGHMPRTAETLQQLLPGVGRYTAGAIASIAFGQATGVVDGNVARVLCRVRAIGADPSSTLVSQQLWGLAQQLVDPARPGDFNQAAMELGATVCTPQRPLCSQCPVESLCRARQRVEQEQLLASGSLSGSPDVEECAPNTGQCHLCLPPSEPWDQTLGVVNFPRKASRKPPREESSATCVLEQPGALGAQILLVQRPNSGLLAGLWEFPSVTWEPSEQLQRKALLQELQRWAGPLPATHLRHLGEVVHTFSHIKLTYQVYGLALEGQTPVTTVPPGARWLTQEEFHTAAVSTAMKKVFRVYQGQQPGTCMGSKRSQVSSPCSRKKPRMGQQVLDNFFRSHISTDAHSLNSAAQ [W103P], the “8OG:A repair function score” value was -1.09.

On to MRKPRAAVGSGHRKQAASQEGRQKHAKNNSQAKPSGCDGLARQPEEVVLQASVSSYHLFRDVAEVTAFRGSLLSWYDQEKRDLPWRRRAEDEMDLDRRAYAVWVSEVMLQQTQVATVINYYTGWMQKWPTLQDLASASLEEVNQLWAGLGYYSRGRRLQEGARKVVEELGGHMPRTAETLQQLLPGVGRYTAGAIASIAFGQATGVVDGNVARVLCRVRAIGADPSSTLVSQQLWGLAQQLVDPARPGDFNQAAMELGATVCTPQRPLCSQCPVESLCRARQRVEQEQLLASGSLSGSPDVEECAPNTGQCHLCLPPSEPWDQTLGVVNFPRKASRKPPREESSATCVLEQPGALGAQILLVQRPNSGLLAGLWEFPSVTWEPSEQLQRKALLQELQRWAGPLPATHLRHLGEVVHTFSHIKLTYQVYGLALEGQTPVTTVPPGARWLTQEEFHTAAVSTAMKKVFRVYQGQQPGTCMGSKRSQVSSPCSRKKPRMGQQVLDNFFRSHISTDAHSLNSAAQ [A36G], for which the “8OG:A repair function score” value is -0.011.

Turning to MRKPRAAVGSGHRKQAASQEGRQKHAKNNSQAKPSACDGLARQPEEVVLQASVSSYHLFRDVAEVTAFRGSLLSWYDQEKRDLPWRRRAEDEMDLDRRAYALWVSEVMLQQTQVATVINYYTGWMQKWPTLQDLASASLEEVNQLWAGLGYYSRGRRLQEGARKVVEELGGHMPRTAETLQQLLPGVGRYTAGAIASIAFGQATGVVDGNVARVLCRVRAIGADPSSTLVSQQLWGLAQQLVDPARPGDFNQAAMELGATVCTPQRPLCSQCPVESLCRARQRVEQEQLLASGSLSGSPDVEECAPNTGQCHLCLPPSEPWDQTLGVVNFPRKASRKPPREESSATCVLEQPGALGAQILLVQRPNSGLLAGLWEFPSVTWEPSEQLQRKALLQELQRWAGPLPATHLRHLGEVVHTFSHIKLTYQVYGLALEGQTPVTTVPPGARWLTQEEFHTAAVSTAMKKVFRVYQGQQPGTCMGSKRSQVSSPCSRKKPRMGQQVLDNFFRSHISTDAHSLNSAAQ [V102L], the “8OG:A repair function score” value is -0.259.

On to MRKPRAAVGSGHRKQAASQEGRQKHAKNNSQAKPSACDGLARQPEEVVLQASVSSYHLFRDVAEVTAFRGSLLSWYDQEKRDLPWRRRAEDEMDLDRRAYAVWVSEVMLQQTQVATVINYYTGWMQKWPTLQDLASASLEEVNQLWAGLGYYSRGRRLQEGARKVVEELGGHMPRTAETLQQLLPGVGRYTAGAIASIAFGQATGVVDGNVARVLCRVRAIGADPSSTLVSQQLWGLAQQLVDPARPGDFNQAAMELGATVCTPQRPLCSQCPVESLCRARQRVEQEQLLASGSLSGSPDVEGCAPNTGQCHLCLPPSEPWDQTLGVVNFPRKASRKPPREESSATCVLEQPGALGAQILLVQRPNSGLLAGLWEFPSVTWEPSEQLQRKALLQELQRWAGPLPATHLRHLGEVVHTFSHIKLTYQVYGLALEGQTPVTTVPPGARWLTQEEFHTAAVSTAMKKVFRVYQGQQPGTCMGSKRSQVSSPCSRKKPRMGQQVLDNFFRSHISTDAHSLNSAAQ [E303G], for which the “8OG:A repair function score” value is -0.0952.

In the case of MRKPRAAVGSGHRKQAASQEGRQKHAKNNSQAKPSACDGLARQPEEVVLQASVSSYHLFRDVAEVTAFRGSLLSWYDQEKRDLPWRRRAEDEMDLDRRAYAVWVSEVMLQQTQVATVINYYTGWMQKWPTLQDLASASLEEVNQLWAGLGYYSRGRRLQEGARKVVEELGGHMPRTAETLQQLLPGVGRYTAGAIASIAFGQATGVVDGNVARVLCRVRAIGADPSSTLVSQQLWGLAQQLVDPARPGDFNQAAMELGATVCTPQRPLCSQCPVESLCRARQRVEQEQLLASGSLSGSPDVEECAPNTGQCHLCLPPSEPWDQTLGVVNFPRKASRKPPREESSATCVLEQPGALEAQILLVQRPNSGLLAGLWEFPSVTWEPSEQLQRKALLQELQRWAGPLPATHLRHLGEVVHTFSHIKLTYQVYGLALEGQTPVTTVPPGARWLTQEEFHTAAVSTAMKKVFRVYQGQQPGTCMGSKRSQVSSPCSRKKPRMGQQVLDNFFRSHISTDAHSLNSAAQ [G356E], the “8OG:A repair function score” value is -0.141.

On to MRKPRAAVGSGHRKQAASQEGRQKHAKNNSQAKPSACDGLARQPEEVVLQASVSSYHLFRDVAEVTAFRGSLLSWYDQEKRDLPWRRRAEDEMDLDRRAYAVWVSEVMLQQTQVATVINYYTGWMQKWPTLQDLASASLEEVNQLWAGLGYYSRGRRLQEGARKVVEELGGHMPRTAETLQQLLPGVGRYTAGAIASIAFGQATGVVDGNVARVLCRVRAIGADPSSTLVSQQLWGLAQQLVDPARPGDFNQAAMELGATVCTPQRPLCSQCPVESLCRARQRVEQEQLLASGSLSGSPDVEECAPNTGQCHLCLPPSEPWDQTLGVVNFPRKASRKPPREESSATCVLEQPGALGAQILLVQRPNSGLLAGLWEFPSVTWEPSEQLQRKALLQELQRWAGPLPATHLRHLGEVVHTFSHIKLTYQVYGLALEGQTPVTTVPPGARWLTQEEFHTAAVSTAMKKVFRVYQGQQPGTCMGSKRSQVSSSCSRKKPRMGQQVLDNFFRSHISTDAHSLNSAAQ [P488S], for which the “8OG:A repair function score” value was 0.00249.

The values above are taken from the supplement of paper PMC11908140.
